This note sets out measurements from article PMC9505826, “A Peptide Inhibitor of the Human Cytomegalovirus Core Nuclear Egress Complex” (Pharmaceuticals, 2022).

The labels stand for the following.
B1: recombinant HCMV pUL50 (His-tagged) (natural protein)
chain: MEMNKVLHQDLVQATRRILKLGPSELRVTDAGLICKNPNYSVCDAMLKTDTVYCVEYLLSYWESRTDHVPCFIFKNTGCAVSLCCFVRAPVKLVSPARHVGEFNVLKVNESLIVTLKDIEEIKPSAYGVLTKCVVRKSNSASVFNIELIAFGPENEGEYENLLRELYAKKAASTS
notes: also called His-tagged pUL50

Experiment [1] has as its target T1, Fluo-NLS-CPP (fluoresceinylated; pUL53 NLS 18-27 joined to HIV-1 Tat 47-59) (human cytomegalovirus (HCMV) | human …).
T1 construct: also called Fluo-NLS-CPP peptide; source: synthetic peptide (Fmoc solid-phase synthesis, HPLC purified)
As to the kind of experiment: fluorescence polarisation; 25 nM N-terminally fluoresceinylated peptide; recombinant pUL50 in two-fold serial dilutions from 20 µM; 0.1 M PB, 150 mM NaCl, 1 mM TCEP, pH 7.2, 0.01% Tween 20. The following applies: both partners purified.

The target of experiment [2] is B1. In words: ELISA; competition: pUL53 (1 µg/mL) coated on Immulon plates; peptide in serial dilutions from 10 µM together with His-tagged pUL50 (0.78 µg/mL) for 2.5 h; detection with anti-His-HRP; 0.1 M phosphate buffer pH 7.2, 0.1% BSA, 0.01% Tween 20. The following applies: both partners purified. In general terms: An ELISA detects its analyte on a solid surface through an enzyme-linked reagent.

For the molecule B1, the dissociation constant (Kd) – broadly, the constant that tells how readily two partners part at equilibrium – in experiment [1] is greater than 10000 nM.

B2: Hook peptide (acetylated pUL53 hook peptide, residues 59-87) (peptide)
peptide: Ac-LTLHDLHDIFREHPELELKYLNMMKMAIT-NH2
notes: source: synthetic peptide (Fmoc solid-phase synthesis, HPLC purified)
As for B2, the IC50 (commonly the midpoint of a concentration-inhibition curve) in experiment [2] was 125 nM.
